PMC8080589, “Modulation of αVβ6 integrin in osteoarthritis-related synovitis and the interaction with VTN(381–397 a.a.) competing for TGF-β1 activation” (Experimental & Molecular Medicine, 2021)
Blank lines part the entries; values can stand above or below the substance they belong to. Ends that are not written are not given here.

How the values were obtained:
α-SMA in human FLSs = experiment: Expression of α-SMA in FLSs by western blot; type: cell-based; details: TGF-β1 10 ng/mL, 7 days, OA FLSs (n = 5), western blot normalized to Hsp90
Experimental: Finally, for analysis of the expression of α-SMA, FLSs (n = 5) were stimulated with VTN(381–397 a.a.) (10, 25, 50, 100 ng/mL) with or without TGF-β1 (10 ng/mL) for 7 days.
The expression of αV and β6 subunits and α-SMA in FLSs was evaluated by western blot analysis. Cells were scraped from plates and lysed with lysis buffer (25 mM HEPES, 150 mM NaCl, 0.5% Triton, 10% glycerol, 1 mM dithiothreitol) containing phosphatase inhibitors (25 mM β-glycerophosphate, 1 mM Na3VO4, and 1 mM NaF) and complete protease inhibitor mixture (Roche Applied Science; Penzberg, Germany). Total proteins were separated by 10% SDS–PAGE gels (12% for α-SMA) and transferred onto PVDF membranes. The membranes were then incubated with anti-αV polyclonal antibody (1:250 dilution) (Cell Signaling Technology; Boston, MA, USA), anti-β6 polyclonal antibody (1:1000 dilution) (Abcam; Cambridge, UK) or anti-α-SMA monoclonal antibody (Agilent; Santa Clara, CA, USA; 1:1000 dilution). […] Data were analyzed by paired Wilcoxon test; a p-value < 0.05 was considered statistically significant. […]
FLSs were stimulated with VTN(381–397 a.a.) with or without TGF-β1 to evaluate the effect on the expression of the fibrotic marker α-SMA (Fig. 5). […] The results in Fig. 5 are expressed as the ratio of the normalized optical density vs. the control and are shown as the mean (±SEM).

[1] = system: β6 integrin subunit expression, human fibroblast-like synoviocytes (FLSs); experiment: β6 subunit expression in FLSs by western blot after stimulation; type: cell-based; details: TGF-β1 10 ng/mL, 3 or 7 days, n = 12, OA FLSs, western blot normalized to GAPDH, paired Wilcoxon, p-value ≤ 0.01
Experimental: Synovial membranes were obtained from 22 OA patients (14 females, 8 males; mean age 69.8 ± 9.6 years, BMI 30.9 ± 6.8) during knee replacement, and primary synovial fibroblasts were isolated as explained previously. The research ethics committee of CHU de Liege (Belgium) approved the study, and the patient gave informed consent to allow research procedures on samples. Human fibroblast-like synoviocytes (FLSs) were then cultured in DMEM supplemented with 10% FBS, 1% Pen/Strep, and 1% L-glutamine (all from Lonza; Basel, Switzerland) at 37 °C in an atmosphere of 5% CO2. In a plate, 5 × 10^4 FLSs were stimulated with different compounds to analyze the modulation of αVβ6: (i) TGF-β1, TNF-α, IL-1β, or IL-6 were used for 3 or 7 days at a concentration of 10 ng/mL; (ii) among the danger-associated molecular patterns, high-mobility group box 1 (HMGB1) was tested at 10, 50, and 100 ng/mL for 3 days, while S100A9 and S100A12 were tested at 100 and 200 ng/mL for 3 days or 24 h; (iii) advanced glycation end product (AGE-BSA) was tested at 50, 100, and 200 μg/mL for 3 days or 24 h; (iv) prednisolone and dexamethasone were used at 1 μM for 3 or 7 days; and (v) menadione or H2O2 was used to induce oxidative stress at 25–50–100 μM (3 h) and 100–200–400 μM (2 h), respectively, without FBS in the medium.
The expression of αV and β6 subunits and α-SMA in FLSs was evaluated by western blot analysis. Cells were scraped from plates and lysed with lysis buffer (25 mM HEPES, 150 mM NaCl, 0.5% Triton, 10% glycerol, 1 mM dithiothreitol) containing phosphatase inhibitors (25 mM β-glycerophosphate, 1 mM Na3VO4, and 1 mM NaF) and complete protease inhibitor mixture (Roche Applied Science; Penzberg, Germany). Total proteins were separated by 10% SDS–PAGE gels (12% for α-SMA) and transferred onto PVDF membranes. The membranes were then incubated with anti-αV polyclonal antibody (1:250 dilution) (Cell Signaling Technology; Boston, MA, USA), anti-β6 polyclonal antibody (1:1000 dilution) (Abcam; Cambridge, UK) or anti-α-SMA monoclonal antibody (Agilent; Santa Clara, CA, USA; 1:1000 dilution). HRP-conjugated anti-rabbit antibody (1:1000 dilution) (Cell Signaling Technology) was used as the secondary antibody. Immunoblots were developed using the ECL chemiluminescent detection system. Rabbit anti-glyceraldehyde 3-phosphate dehydrogenase (GAPDH) (Merck) or rabbit anti-heat shock protein 90 (Hsp90; Santa Cruz) was used as loading controls at a dilution of 1:10,000 or 1:200, respectively. Values of optical intensity were normalized to GAPDH or Hsp90 levels. Data were analyzed by paired Wilcoxon test; a p-value < 0.05 was considered statistically significant. Statistical analysis was performed with GraphPad Prism 6 software (San Diego, CA, USA).
IL-1β 10 ng/mL 3 days IL-6 10 ng/mL 3 daysIL-6 Prednisolone 1µM 3 daysPrednisolone
0.0 control IL-6 0.0 control PRE
Dexamethasone 1µM 3 daysDexamethasone TNF-α 10 ng/mL 3 days AGE 50 µg/mL 24 h

[2] = system: latent TGF-β1 activation (αVβ6 on human FLSs; PAI-1 promoter-luciferase in TMLCs); experiment: TGF-β luciferase bioassay, TMLC + FLS coculture, activation of latent TGF-β1; type: cell-based, human FLSs; mink lung epithelial reporter cells; details: peptide 50 ng/mL, 200 ng/mL latent TGF-β1, TMLC + FLS coculture, 16 h, n = 6 donors in triplicate, paired Wilcoxon
Experimental: Transformed mink lung epithelial cells (TMLCs), a generous gift from Prof. DB Rifkin (Department of Cell Biology, NYU School of Medicine, New York, NY), were used to test TGF-β1 functionality. TMLCs were cultured in DMEM supplemented with 10% FBS, 1% Pen/Strep, and 1 mg/mL G418 Sulfate (Biowest; Riverside, MO, USA). For coculture, TMLCs were plated in 96-well plates at a density of 10^4 cells per well, and fibroblasts were added at a density of 1.5 × 10^4 cells per well, with a final volume of 100 μL. Cells were allowed to attach at 37 °C and 5% CO2. After 6 h, the medium was removed and replaced by the different treatments diluted in medium with 0.1% BSA without FBS (final volume of 100 μL).
For function-blocking experiments, cells were incubated with anti-αVβ6 antibody (clone 10D5; Merck) or with the isotype control IgG2a kappa (clone eBM2a; Thermo Fisher Scientific) for 20 min at room temperature at a concentration of 50 μg/mL in medium containing 1 mM MgCl2/0.1% BSA before adding other compounds. […] Luciferase activity was assessed by plate-reading luminometers with an injector (Victor™ X3; PerkinElmer Waltham, MA, USA) adding 100 µl of luciferase assay reagent (Promega) per well. […]
The data are expressed as relative luciferase activity (RLA). RLA is the measured luciferase activity of the coculture divided by the activity of the related control alone under the same conditions. […]

integrin αVβ5 [3] = biological target: T1, integrin αVβ5 (Homo sapiens, UniProt P06756+P18084); experiment: Competition study, 125ISIB-echistatin vs ligands on coated αVβ5; type: binding; details: competition with 8 nM 125ISIB-echistatin, recombinant human αVβ5 coated at 1.8 µg/mL, IBB pH 7.4 / 0.5% BSA, 2 h room temperature, duplicate wells
T1 construct: purchased R&D System; Minneapolis, MN, USA
Experimental: (§1) A competition study was performed to investigate the interaction of VTN(381–397 a.a.) with five different integrins. Radiolabeled echistatin, a disintegrin known to bind integrin receptors, was used as a tracer for the binding assays. Lyophilized echistatin was provided by Bachem (Bubendorf, Switzerland) and radiolabeled by conjugation with a radioiodinated benzoate (^125ISIB) to the epsilon amino group of lysine side chains. For the five integrins, α5β1, αVβ1, αVβ3, αVβ5, and αVβ6 (R&D System; Minneapolis, MN, USA), a solution at 1.8 µg/mL was prepared with integrin-binding buffer (IBB; 20 mM Tris pH 7.4, 150 mM NaCl, 2 mM CaCl2, 1 mM MgCl2, 1 mM MnCl2). Nunc Maxisorp Module plates were coated overnight at 4 °C with integrin complex at 1.8 µg/mL. […] After rinsing, bound radioactivity was quantified using a gamma counter. The percentage of relative binding of radiolabeled echistatin was calculated as follows: radioactivity in the test well*100/radioactivity in the reference well. […] For comparison of the potency of ligands in inhibiting bound ^125ISIB-echistatin for different integrin complexes, the half-maximal inhibitory concentration (IC50) was calculated. The IC50 value was determined by constructing a dose–response curve and examining the effect of different concentrations of ligands on ^125ISIB-echistatin binding. […]

integrin αVβ5 [4] = biological target: T1, integrin αVβ5; experiment: Saturation assay with radiolabeled echistatin, αVβ5; type: binding; details: increasing radiolabeled echistatin, integrin coated at 1.8 µg/mL
Experimental: (§2) To determine if VTN(381–397 a.a.) could interact with integrins, we investigated its ability to compete with radiolabeled echistatin for binding to five different integrin complexes: α5β1, αVβ1, αVβ3, αVβ5 and αVβ6. We also tested the binding affinity of the whole VTN protein and another VTN fragment, VTN(365–381 a.a), as previously described by Maile et al.,[33]. First, the binding affinity of echistatin to the five integrins was measured by determining the equilibrium dissociation constant (KD). KD was evaluated by saturation assays involving addition of increasing concentrations of radiolabeled echistatin to a constant concentration of integrins (coated at 1.8 µg/mL). […] Subsequently, competitive experiments were performed using increasing concentrations of ligand and a fixed amount of radiolabeled echistatin. The fixed concentration of radiolabeled echistatin was determined according to its KD value. For each ligand concentration, the relative binding of ^125ISIB-echistatin to coated integrins was then measured, and values were plotted versus the logarithm of ligand concentration.

integrin αVβ3 [5] = biological target: T2, integrin αVβ3 (Homo sapiens, UniProt P05106+P06756); experiment: Saturation assay with radiolabeled echistatin, αVβ3; type: binding; details: increasing radiolabeled echistatin, integrin coated at 1.8 µg/mL
T2 construct: purchased R&D System; Minneapolis, MN, USA
Experimental: as §2

integrin αVβ1 [6] = biological target: T3, integrin αVβ1 (Homo sapiens, UniProt P05556+P06756); experiment: Saturation assay with radiolabeled echistatin, αVβ1; type: binding; details: increasing radiolabeled echistatin, integrin coated at 1.8 µg/mL
T3 construct: purchased R&D System; Minneapolis, MN, USA
Experimental: as §2

integrin αVβ6 [7] = biological target: T4, integrin αVβ6 (Homo sapiens, UniProt P06756+P18564); experiment: Competition study, 125ISIB-echistatin vs ligands on coated αVβ6; type: binding; details: competition with 20 nM 125ISIB-echistatin, recombinant human αVβ6 coated at 1.8 µg/mL, IBB pH 7.4 / 0.5% BSA, 2 h room temperature, duplicate wells, gamma counter, five-parameter logistic
T4 construct: purchased R&D System; Minneapolis, MN, USA
Experimental: as §1, with “µg/mL. After the wells were washed with sample buffer (IBB, 0.5% BSA), blocking solution (IBB, 2% BSA) was added, and the microplate was incubated for 2 h at room temperature. The wells were then washed three times with IBB/0.5% BSA. Then, ^125ISIB-echistatin was diluted in sample buffer to fixed concentrations of 4, 4, 8, 8, and 20 nM for α5β1, αVβ1, αVβ3, αVβ5, and αVβ6 competition studies, respectively. The ^125ISIB-echistatin was mixed with sample buffer at a ratio of 1:1 (total binding = control well) or with increasing concentrations of ligands (Supplementary information SI1) [complete VTN, VTN(381–397 a.a.), VTN(365–381 a.a.)] at a ratio 1:1 and added to wells in duplicate. We used 1,4,7-triazacyclononane-1,4,7-triacetic acid (NOTA) as a negative control.” for “µg/mL.”
To determine if VTN(381–397 a.a.) could interact with integrins, we investigated its ability to compete with radiolabeled echistatin for binding to five different integrin complexes: α5β1, αVβ1, αVβ3, αVβ5 and αVβ6. […] First, the binding affinity of echistatin to the five integrins was measured by determining the equilibrium dissociation constant (KD). […] The fixed concentration of radiolabeled echistatin was determined according to its KD value. For each ligand concentration, the relative binding of ^125ISIB-echistatin to coated integrins was then measured, and values were plotted versus the logarithm of ligand concentration.

integrin α5β1 [8] = biological target: T5, integrin α5β1 (Homo sapiens, UniProt P05556+P08648); experiment: Competition study, 125ISIB-echistatin vs ligands on coated α5β1; type: binding; details: competition with 4 nM 125ISIB-echistatin, recombinant human α5β1 coated at 1.8 µg/mL, IBB pH 7.4 / 0.5% BSA, 2 h room temperature, duplicate wells
T5 construct: purchased R&D System; Minneapolis, MN, USA
Experimental: as §1

integrin αVβ6 [9] = biological target: T4, integrin αVβ6; experiment: Saturation assay with radiolabeled echistatin, αVβ6; type: binding; details: increasing radiolabeled echistatin, integrin coated at 1.8 µg/mL
Experimental: as §2

integrin αVβ1 [10] = biological target: T3, integrin αVβ1; experiment: Competition study, 125ISIB-echistatin vs ligands on coated αVβ1; type: binding; details: competition with 4 nM 125ISIB-echistatin, recombinant human αVβ1 coated at 1.8 µg/mL, IBB pH 7.4 / 0.5% BSA, 2 h room temperature, duplicate wells
Experimental: as §1

integrin αVβ3 [11] = biological target: T2, integrin αVβ3; experiment: Competition study, 125ISIB-echistatin vs ligands on coated αVβ3; type: binding; details: competition with 8 nM 125ISIB-echistatin, recombinant human αVβ3 coated at 1.8 µg/mL, IBB pH 7.4 / 0.5% BSA, 2 h room temperature, duplicate wells
Experimental: as §1

integrin α5β1 [12] = biological target: T5, integrin α5β1; experiment: Saturation assay with radiolabeled echistatin, α5β1; type: binding; details: increasing radiolabeled echistatin, integrin coated at 1.8 µg/mL
Experimental: as §2

T5 sequence (P08648 42-995 limits assumed): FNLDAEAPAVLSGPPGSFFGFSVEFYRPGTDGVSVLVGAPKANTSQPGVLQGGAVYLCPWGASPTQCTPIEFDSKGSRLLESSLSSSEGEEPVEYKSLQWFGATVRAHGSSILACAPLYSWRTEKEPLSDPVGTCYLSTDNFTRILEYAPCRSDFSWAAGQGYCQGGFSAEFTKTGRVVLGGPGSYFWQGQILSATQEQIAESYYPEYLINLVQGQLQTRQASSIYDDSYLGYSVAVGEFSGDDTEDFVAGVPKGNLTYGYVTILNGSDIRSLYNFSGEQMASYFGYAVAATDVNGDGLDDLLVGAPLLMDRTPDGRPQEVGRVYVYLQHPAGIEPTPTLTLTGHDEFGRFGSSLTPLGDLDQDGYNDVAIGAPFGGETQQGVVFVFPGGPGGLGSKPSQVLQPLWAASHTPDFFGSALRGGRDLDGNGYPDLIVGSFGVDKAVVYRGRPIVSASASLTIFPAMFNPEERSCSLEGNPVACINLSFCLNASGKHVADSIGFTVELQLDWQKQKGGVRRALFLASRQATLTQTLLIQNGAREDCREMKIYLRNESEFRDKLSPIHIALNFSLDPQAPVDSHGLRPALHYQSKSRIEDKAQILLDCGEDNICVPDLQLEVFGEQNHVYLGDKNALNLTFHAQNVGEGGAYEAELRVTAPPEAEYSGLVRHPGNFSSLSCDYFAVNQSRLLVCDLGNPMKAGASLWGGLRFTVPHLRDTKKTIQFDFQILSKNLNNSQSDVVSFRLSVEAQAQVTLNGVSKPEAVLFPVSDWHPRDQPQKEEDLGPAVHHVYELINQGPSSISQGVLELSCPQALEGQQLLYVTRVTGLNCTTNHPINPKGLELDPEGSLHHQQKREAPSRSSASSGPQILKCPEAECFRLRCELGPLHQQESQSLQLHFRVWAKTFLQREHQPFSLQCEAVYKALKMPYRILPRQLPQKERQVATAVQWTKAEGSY
T5 sequence (P05556 21-728 limits assumed): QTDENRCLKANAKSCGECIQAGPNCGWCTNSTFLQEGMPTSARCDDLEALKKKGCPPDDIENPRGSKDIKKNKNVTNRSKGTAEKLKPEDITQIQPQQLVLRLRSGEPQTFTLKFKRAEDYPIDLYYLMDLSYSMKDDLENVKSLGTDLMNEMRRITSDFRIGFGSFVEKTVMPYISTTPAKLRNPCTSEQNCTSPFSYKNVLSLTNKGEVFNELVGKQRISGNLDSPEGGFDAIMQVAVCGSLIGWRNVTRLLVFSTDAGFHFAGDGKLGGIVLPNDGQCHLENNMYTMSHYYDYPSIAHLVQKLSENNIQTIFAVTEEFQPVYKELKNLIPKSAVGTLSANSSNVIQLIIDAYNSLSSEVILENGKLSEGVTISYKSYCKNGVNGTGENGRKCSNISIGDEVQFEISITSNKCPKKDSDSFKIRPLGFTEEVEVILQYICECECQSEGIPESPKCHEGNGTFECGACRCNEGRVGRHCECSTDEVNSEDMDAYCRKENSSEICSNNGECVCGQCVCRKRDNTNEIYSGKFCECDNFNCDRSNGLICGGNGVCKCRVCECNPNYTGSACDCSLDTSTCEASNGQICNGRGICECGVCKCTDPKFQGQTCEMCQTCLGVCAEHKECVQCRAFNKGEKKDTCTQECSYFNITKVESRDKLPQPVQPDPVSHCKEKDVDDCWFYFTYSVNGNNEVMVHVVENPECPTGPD
T1 sequence (P06756 31-992 limits assumed): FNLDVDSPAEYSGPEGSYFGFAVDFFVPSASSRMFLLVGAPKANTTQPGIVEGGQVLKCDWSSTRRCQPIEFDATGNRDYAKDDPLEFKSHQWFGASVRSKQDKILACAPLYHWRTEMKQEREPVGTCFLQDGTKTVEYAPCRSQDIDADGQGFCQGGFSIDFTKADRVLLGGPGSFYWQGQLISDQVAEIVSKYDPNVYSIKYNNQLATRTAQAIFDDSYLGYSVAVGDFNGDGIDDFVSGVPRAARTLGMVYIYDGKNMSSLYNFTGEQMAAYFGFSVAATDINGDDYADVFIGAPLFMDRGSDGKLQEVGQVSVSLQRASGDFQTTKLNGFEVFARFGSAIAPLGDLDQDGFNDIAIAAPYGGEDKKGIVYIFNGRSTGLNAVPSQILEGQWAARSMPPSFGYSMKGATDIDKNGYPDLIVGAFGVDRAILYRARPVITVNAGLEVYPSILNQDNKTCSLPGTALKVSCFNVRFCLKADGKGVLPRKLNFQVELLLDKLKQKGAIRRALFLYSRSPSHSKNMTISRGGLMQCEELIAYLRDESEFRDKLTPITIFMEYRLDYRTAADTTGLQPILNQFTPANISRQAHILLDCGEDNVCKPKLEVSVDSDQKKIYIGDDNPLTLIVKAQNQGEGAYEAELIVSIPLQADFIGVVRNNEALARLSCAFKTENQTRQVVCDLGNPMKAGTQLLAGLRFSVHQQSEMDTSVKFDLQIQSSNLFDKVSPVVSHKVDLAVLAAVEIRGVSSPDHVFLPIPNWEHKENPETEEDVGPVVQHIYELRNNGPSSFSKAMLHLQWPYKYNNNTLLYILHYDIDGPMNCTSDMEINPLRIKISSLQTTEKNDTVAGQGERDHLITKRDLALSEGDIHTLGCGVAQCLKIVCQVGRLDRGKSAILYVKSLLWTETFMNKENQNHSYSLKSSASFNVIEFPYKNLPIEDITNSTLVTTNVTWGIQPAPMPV
T1 sequence (P18084 24-719 limits assumed): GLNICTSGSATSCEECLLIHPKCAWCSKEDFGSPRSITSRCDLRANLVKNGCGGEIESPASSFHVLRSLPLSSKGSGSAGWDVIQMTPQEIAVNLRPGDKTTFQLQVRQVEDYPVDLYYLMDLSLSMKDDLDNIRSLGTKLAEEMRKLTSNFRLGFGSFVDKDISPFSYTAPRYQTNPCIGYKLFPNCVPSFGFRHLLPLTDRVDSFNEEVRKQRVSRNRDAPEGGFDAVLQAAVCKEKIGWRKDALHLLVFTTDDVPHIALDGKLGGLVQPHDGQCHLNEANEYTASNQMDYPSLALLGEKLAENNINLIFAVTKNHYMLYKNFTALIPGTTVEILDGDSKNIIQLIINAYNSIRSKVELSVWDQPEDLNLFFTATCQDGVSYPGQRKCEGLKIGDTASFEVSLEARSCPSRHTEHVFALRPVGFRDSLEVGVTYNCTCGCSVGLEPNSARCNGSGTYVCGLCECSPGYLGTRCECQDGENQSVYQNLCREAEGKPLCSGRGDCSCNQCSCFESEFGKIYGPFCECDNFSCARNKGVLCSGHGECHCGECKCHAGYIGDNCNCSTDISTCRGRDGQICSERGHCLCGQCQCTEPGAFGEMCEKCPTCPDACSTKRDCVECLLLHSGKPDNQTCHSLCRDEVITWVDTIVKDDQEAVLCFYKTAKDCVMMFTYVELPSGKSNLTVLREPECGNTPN
T4 sequence (P06756 31-992 limits assumed): as the sequence (P06756 31-992 limits assumed) above
T4 sequence (P18564 22-707 limits assumed): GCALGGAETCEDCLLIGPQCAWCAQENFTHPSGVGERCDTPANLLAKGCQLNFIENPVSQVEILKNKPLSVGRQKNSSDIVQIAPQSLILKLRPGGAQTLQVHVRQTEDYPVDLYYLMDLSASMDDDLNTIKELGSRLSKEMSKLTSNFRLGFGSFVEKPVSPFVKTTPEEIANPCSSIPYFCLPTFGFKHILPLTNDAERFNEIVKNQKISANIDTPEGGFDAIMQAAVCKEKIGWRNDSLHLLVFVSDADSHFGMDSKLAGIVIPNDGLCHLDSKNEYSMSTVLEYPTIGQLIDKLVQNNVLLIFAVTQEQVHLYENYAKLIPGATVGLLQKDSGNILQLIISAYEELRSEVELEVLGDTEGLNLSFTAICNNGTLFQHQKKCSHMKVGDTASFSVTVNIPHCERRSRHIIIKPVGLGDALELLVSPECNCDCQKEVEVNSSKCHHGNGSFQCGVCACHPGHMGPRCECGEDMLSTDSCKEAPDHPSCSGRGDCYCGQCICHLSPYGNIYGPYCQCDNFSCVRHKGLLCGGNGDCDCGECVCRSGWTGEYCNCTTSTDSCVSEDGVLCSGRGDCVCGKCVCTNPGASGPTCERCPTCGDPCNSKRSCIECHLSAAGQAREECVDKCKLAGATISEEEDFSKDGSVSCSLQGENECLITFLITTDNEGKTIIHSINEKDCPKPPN
T3 sequence (P06756 31-992 limits assumed): as the sequence (P06756 31-992 limits assumed) above
T3 sequence (P05556 21-728 limits assumed): as the sequence (P05556 21-728 limits assumed) above
T2 sequence (P06756 31-992 limits assumed): as the sequence (P06756 31-992 limits assumed) above
T2 sequence (P05106 27-718 limits assumed): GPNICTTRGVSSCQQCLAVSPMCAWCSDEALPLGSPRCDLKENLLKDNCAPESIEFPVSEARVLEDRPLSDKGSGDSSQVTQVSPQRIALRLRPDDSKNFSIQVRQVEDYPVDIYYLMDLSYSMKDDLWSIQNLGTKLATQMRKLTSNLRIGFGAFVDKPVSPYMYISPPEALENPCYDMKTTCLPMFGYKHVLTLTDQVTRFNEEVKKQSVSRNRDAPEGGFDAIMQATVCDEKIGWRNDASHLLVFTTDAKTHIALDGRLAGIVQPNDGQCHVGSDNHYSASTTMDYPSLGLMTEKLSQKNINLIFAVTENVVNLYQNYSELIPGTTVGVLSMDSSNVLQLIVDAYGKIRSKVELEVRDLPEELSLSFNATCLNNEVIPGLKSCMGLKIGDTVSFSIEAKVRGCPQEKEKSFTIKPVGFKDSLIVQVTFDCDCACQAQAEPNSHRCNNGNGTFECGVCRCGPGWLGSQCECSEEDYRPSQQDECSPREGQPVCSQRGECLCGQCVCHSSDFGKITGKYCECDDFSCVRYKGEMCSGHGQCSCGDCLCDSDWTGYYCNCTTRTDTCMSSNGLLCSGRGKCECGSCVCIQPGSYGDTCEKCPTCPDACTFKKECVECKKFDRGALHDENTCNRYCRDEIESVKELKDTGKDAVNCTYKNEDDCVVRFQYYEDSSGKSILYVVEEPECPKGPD

Substance: TGF-β1: profibrotic mediator
effect on α-SMA (α-SMA in human FLSs): upregulated the content of the fibrotic marker α-SMA | effect on β6 subunit expression [1]: significantly increased β6 expression

effect on latent TGF-β1 activation (luciferase signal) [2]: No significant variation was observed
Substance: hepcidin: used as a control peptide

Substance: Echistatin (QCESGPCCRNCKFLKEGTICKRARGDDMDDYCNGKTCDCPRNPHKGPAT; disulfide (positions not given here); not fully specified (bridges); also: Lys ε-amino groups conjugated with 125I-iodobenzoate (125ISIB), positions not given here) [tracer radiolabeled with radioiodinated benzoate (125ISIB) at lysine side chains]
IC50 (integrin αVβ5 [3]): 4 nM | Kd (integrin αVβ5 [4]): 3.46 nM | Kd (integrin αVβ3 [5]): 3.17 nM | Kd (integrin αVβ1 [6]): 0.99 nM | IC50 (integrin αVβ6 [7]): 14 nM | IC50 (integrin α5β1 [8]): 2 nM | Kd (integrin αVβ6 [9]): 17.1 nM | IC50 (integrin αVβ1 [10]): 1.5 nM | IC50 (integrin αVβ3 [11]): 3.7 nM | Kd (integrin α5β1 [12]): 1.48 nM
